Experimental findings from patent publication US20090149343 are described below.

This series has as its target 48 discrete histone H3 peptides containing a wide range of histone modifications at defined residues (micro-array bound).

B1: recombinant human histone methyl-transferase SET 7/9 (protein)
chain: MDSDDEMVEEAVEGHLDDDGLPHGFCTVTYSSTDRFEGNFVHGEKNGRGKFFFFDGSTLEGYYVDDALQGQGVYTYEDGGVLQGTYVDGELNGPAQEYDTDGRLIFKGQYKDNIRHGVCWIYYPDGGSLVGEVNEDGEMTGEKIAYVYPDERTALYGKFIDGEMIEGKLATLMSTEEGRPHFELMPGNSVYHFDKSTSSCISTNALLPDPYESERVYVAESLISSAGEGLFSKVAVGPNTVMSFYNGVRITHQEVDSRDWALNGNTLSLDEETVIDVPEPYNHVSKYCASLGHKANHSFTPNCIYDMFVHPRFGPIKCIRTLRAVEADEELTVAYGYDHSPPGKSGPEAPEWYQVELKAFQATQQK
For B1, the “SET 7/9 dependent methylation of micro-array bound histone peptides, detected by anti-H3K4me1 antibody” value was “also detects a large number of newly created additional sites containing this epitope after HMTase incubation”.
